Test results taken from patent US20230265151A1, “GIP/GLP1 CO-AGONIST COMPOUNDS” (priority 2020, published 2023).
Where a chain is given by its changes, count along the chain named.

B1: Y-Aib-EGT-αMeF(2F)-TSD-4Pal-SI-αMeL-LD-Orn-K((2-[2-(2-Amino-ethoxy)-ethoxy]-acetyl)2-(γ-Glu)-CO-(CH2)12-CO2H)AQ-Aib-EFIK((2-[2-(2-Amino-ethoxy)-ethoxy]-acetyl)2 … (peptide)
peptide: YXEGTXTSDXSIXLDXKAQXEFIKXLIEGGPSSGAPPPS
modifications: Aib2, αMeF(2F)6, 4Pal10, αMeL13, Orn16, Aib20, αMeY25; acylated K17, K24 (groups as in name); C-terminal amide
B2: Y-Aib-EGT-αMeF(2F)-TSD-4Pal-SI-αMeL-LD-Orn-K((2-[2-(2-Amino-ethoxy)-ethoxy]-acetyl)-(γ-Glu)-(4-(4-tert-butylphenyl)butanoyl))AQ-Aib-EFI-(D-Glu)-αMeY-LIK((2-[2-( … (peptide)
peptide: B1 peptide with K24X, E28K
modifications: Aib2, αMeF(2F)6, 4Pal10, αMeL13, Orn16, Aib20, D-Glu24, αMeY25; acylated K17, K28 (groups as in name); C-terminal amide
B3: Y-Aib-EGT-αMeF(2F)-TSD-4Pal-SI-αMeL-LD-Orn-IAQ-Aib-K((2-[2-(2-Amino-ethoxy)-ethoxy]-acetyl)2-(γ-Glu)-CO-(CH2)12-CO2H)FI-(D-Glu)-αMeY-LIK((2-[2-(2-Amino-ethoxy)- … (peptide)
peptide: B1 peptide with K17I, E21K, K24X, E28K
modifications: Aib2, αMeF(2F)6, 4Pal10, αMeL13, Orn16, Aib20, D-Glu24, αMeY25; acylated K21, K28 (groups as in name); C-terminal amide
B4: Y-Aib-EGT-aMeF(2F)-TSD-4Pal-SI-aMeL-LD-Orn-K((2-[2-(2-Amino-ethoxy)-ethoxy]-acetyl)2-CO-(CH2)12-CO2H)AQ-Aib-EFIK((2-[2-(2-Amino-ethoxy)-ethoxy]-acetyl)2-CO-(CH2 … (peptide)
peptide: B1 peptide
modifications: Aib2, αMeF(2F)6, 4Pal10, αMeL13, Orn16, Aib20, αMeY25; acylated K17, K24 (groups as in name); C-terminal amide
B5: Y-Aib-EGT-αMeF(2F)-TSDK((2-[2-(2-Amino-ethoxy)-ethoxy]-acetyl)2-(γ-Glu)-CO-(CH2)14-CH3)SI-αMeL-LD-Orn-K((2-[2-(2-Amino-ethoxy)-ethoxy]-acetyl)2-(γ-Glu)-CO-(CH2) … (peptide)
peptide: B1 peptide with X10K, K24X
modifications: Aib2, αMeF(2F)6, αMeL13, Orn16, Aib20, D-Glu24, αMeY25; acylated K10, K17 (groups as in name); C-terminal amide
B6: Y-Aib-EGT-αMeF(2F)-TSD-4Pal-SI-αMeL-LD-Orn-K((γ-Glu)-(2-[2-(2-Amino-ethoxy)-ethoxy]-acetyl)2-CO-(CH2)12-CO2H)AQ-Aib-EFI-(D-Glu)-αMeY-LIEGGK((γ-Glu)-(2-[2-(2-Ami … (peptide)
peptide: B1 peptide with K24X, P31K
modifications: Aib2, αMeF(2F)6, 4Pal10, αMeL13, Orn16, Aib20, D-Glu24, αMeY25; acylated K17, K31 (groups as in name); C-terminal amide
B7: Y-Aib-EGT-αMeF(2F)-TSD-4Pal-SI-αMeL-LD-Orn-K((2-[2-(2-Amino-ethoxy)-ethoxy]-acetyl)2-(εK)-(γ-Glu)-CO-(CH2)12-CO2H)AQ-Aib-EFI-(D-Glu)-αMeY-LIEGGK((2-[2-(2-Amino- … (peptide)
peptide: B1 peptide with K24X, P31K
modifications: Aib2, αMeF(2F)6, 4Pal10, αMeL13, Orn16, Aib20, D-Glu24, αMeY25; acylated K17, K31 (groups as in name); C-terminal amide
B8: Y-Aib-EGT-αMeF(2F)-TSD-4Pal-SI-αMeL-LD-Orn-K((γ-Glu)-(2-[2-(2-Amino-ethoxy)-ethoxy]-acetyl)-CO-(CH2)12-CO2H)AQ-Aib-EFI-(D-Glu)-αMeY-LIEGGK((γ-Glu)-(2-[2-(2-Amin … (peptide)
peptide: B1 peptide with K24X, P31K
modifications: Aib2, αMeF(2F)6, 4Pal10, αMeL13, Orn16, Aib20, D-Glu24, αMeY25; acylated K17, K31 (groups as in name); C-terminal amide
B9: Y-Aib-EGT-αMeF(2F)-TSD-4Pal-SI-αMeL-LD-Orn-K((2-[2-(2-Amino-ethoxy)-ethoxy]-acetyl)-(εK)-(γ-Glu)-CO-(CH2)12-CO2H)AQ-Aib-EFI-(D-Glu)-αMeY-LIEGGK((2-[2-(2-Amino-e … (peptide)
peptide: B1 peptide with K24X, P31K
modifications: Aib2, αMeF(2F)6, 4Pal10, αMeL13, Orn16, Aib20, D-Glu24, αMeY25; acylated K17, K31 (groups as in name); C-terminal amide
B10: Y-Aib-EGT-αMeF(2F)-TSD-4Pal-SI-αMeL-LD-Orn-K((2-[2-(2-Amino-ethoxy)-ethoxy]-acetyl)2-(γ-Glu)-CO-(CH2)14-CH3)AQ-Aib-EFI-(D-Glu)-αMeY-LIK((2-[2-(2-Amino-ethoxy)-e … (peptide)
peptide: B1 peptide with K24X, E28K
modifications: Aib2, αMeF(2F)6, 4Pal10, αMeL13, Orn16, Aib20, D-Glu24, αMeY25; acylated K17, K28 (groups as in name); C-terminal amide
B11: Y-Aib-EGT-αMeF(2F)-TSD-4Pal-SI-αMeL-LD-Orn-K((εK)-(γ-Glu)-(γ-Glu)-CO-(CH2)12-CO2H)AQ-Aib-EFI-(D-Glu)-αMeY-LIEGGK((εK)-(γ-Glu)-(γ-Glu)-CO-(CH2)12-CO2H)SSGAPPPS-N … (peptide)
peptide: B1 peptide with K24X, P31K
modifications: Aib2, αMeF(2F)6, 4Pal10, αMeL13, Orn16, Aib20, D-Glu24, αMeY25; acylated K17, K31 (groups as in name); C-terminal amide
B12: Y-Aib-EGT-αMeF(2F)-TSD-4Pal-SI-αMeL-LD-Orn-K((2-[2-(2-Amino-ethoxy)-ethoxy]-acetyl)2-(εK)-CO-(CH2)12-CO2H)AQ-Aib-EFI-(D-Glu)-αMeY-LIEGGK((2-[2-(2-Amino-ethoxy)- … (peptide)
peptide: B1 peptide with K24X, P31K
modifications: Aib2, αMeF(2F)6, 4Pal10, αMeL13, Orn16, Aib20, D-Glu24, αMeY25; acylated K17, K31 (groups as in name); C-terminal amide

Biological target: human glucagon receptor (human, UniProt P47871 26-477)
Assay: cell-based or functional assay

Row | Binder | cAMP EC50 (1.0% HSA) [µM]
1 | B1 | > 9.95
2 | B2 | > 9.95
3 | B3 | > 9.95
4 | B4 | > 9.95
5 | B5 | > 9.95
6 | B6 | > 9.95
7 | B7 | > 9.95
8 | B8 | > 9.95
9 | B9 | > 9.95
10 | B10 | > 9.95
11 | B11 | > 9.95
12 | B12 | > 9.95
